Assay results taken from paper PMC3671583.

B1: random DNA (dsDNA)
DNA 1: TGTTTCTGCCTCTGT
DNA 2: ACAGAGGCAGAAACA
B2: β-RAR DNA (dsDNA)
DNA 1: CACCGAAAGTTCACTC
DNA 2: GAGTGAACTTTCGGTG

Key:
Assay in all cases: fluorescence anisotropy
NZF-1-F2F3 = NZF-1-F2F3 (Rattus norvegicus, UniProt P70475 487-584)
CCHFC NZF-1-F2F3 = CCHFC NZF-1-F2F3 (Rattus norvegicus, UniProt P70475 487-584, H522A;H523F;H567F)
CCFHC NZF-1-F2F3 = CCFHC NZF-1-F2F3 (Rattus norvegicus, UniProt P70475 487-584, H515F;H559F)
MyT1-F2F3 = MyT1-F2F3 (Rattus norvegicus, UniProt D3ZYT5 425-521)

NZF-1-F2F3, sequence (P70475 487-584): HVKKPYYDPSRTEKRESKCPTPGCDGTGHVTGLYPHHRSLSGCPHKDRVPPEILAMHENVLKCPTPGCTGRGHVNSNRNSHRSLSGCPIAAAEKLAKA
CCHFC NZF-1-F2F3, sequence (P70475 487-584 H522A/H523F/H567F): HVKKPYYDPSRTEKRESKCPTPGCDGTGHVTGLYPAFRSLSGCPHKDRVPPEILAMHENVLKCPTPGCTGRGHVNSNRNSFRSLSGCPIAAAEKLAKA
CCFHC NZF-1-F2F3, sequence (P70475 487-584 H515F/H559F): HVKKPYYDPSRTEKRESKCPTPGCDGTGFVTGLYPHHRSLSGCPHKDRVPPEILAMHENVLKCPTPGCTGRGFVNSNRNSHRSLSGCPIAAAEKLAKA

Row | Binder | binding result (NZF-1-F2F3) | binding result (CCHFC NZF-1-F2F3) | binding result (CCFHC NZF-1-F2F3) | Kd (MyT1-F2F3) [nM] | Kd (NZF-1-F2F3) [nM]
1 | B1 | no binding | no binding | no binding | 910 | 
2 | B2 |  | no binding | no binding | 1300 | 14
